The source of these data is patent US20040106557A1.

The assay concerns the target Prostate specific antigen (PSA), purified from human seminal fluid (human) (UniProt P07288). Put plainly: gel filtration peak of ~30 kD after thrombin cleavage, GST-peptide IFMA on PSA captured by MAb 5E4. In general terms: In gel filtration, larger molecules generally elute earlier.

As for “~30 kD component of thrombin-cleaved GST-C-4 (from UniProt P08515 1-218)”, the Binding activity (% of total), remaining after thrombin-treatment is 5.2%.
